Assays:
[1] = biological target: GST-σ^GN45E (Bacillus subtilis) (UniProt P19940); experiment: pull-down; GST or GST-σ^G fusions on glutathione Sepharose beads; 100 nM purified CsfB-Strep II tag; 30 min at room temperature; washed three times in 200 mM NaCl, 10 mM Tris-HCl pH 8.0, 10% glycerol; immunoblot with anti-Strep II tag; densitometry, average of three experiments
GST-σ^GN45A [2] = biological target: T1, GST-σ^GN45A (Bacillus subtilis, UniProt P19940 1-260, N45A); experiment: as above; conditions: both partners purified
T1 construct: RNA polymerase sigma-G factor of Bacillus subtilis; coding region of sigGN45A amplified from pJS4 and cloned into pGex4T-3; not shown: GST, N-terminal, kept
T1 sequence (looked up): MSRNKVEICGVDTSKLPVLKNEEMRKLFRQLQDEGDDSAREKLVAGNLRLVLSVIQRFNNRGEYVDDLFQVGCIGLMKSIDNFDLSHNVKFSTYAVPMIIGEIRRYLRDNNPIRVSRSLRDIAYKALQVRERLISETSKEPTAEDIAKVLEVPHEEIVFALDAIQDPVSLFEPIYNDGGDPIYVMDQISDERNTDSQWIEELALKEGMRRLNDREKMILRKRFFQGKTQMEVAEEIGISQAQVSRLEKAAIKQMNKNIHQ

GST-σ^G = biological target: T2, GST-σ^G (Bacillus subtilis, UniProt P19940 1-260); experiment: as above; conditions: both partners purified
T2 construct: RNA polymerase sigma-G factor of Bacillus subtilis; coding region of sigG amplified with primers sigG2016D and sigG2964R from pMS45 and cloned into pGex4T-3; also called GST-σ^Gwt; GST-σ^G fusion protein (wt); not shown: GST, N-terminal, kept
T2 sequence (looked up): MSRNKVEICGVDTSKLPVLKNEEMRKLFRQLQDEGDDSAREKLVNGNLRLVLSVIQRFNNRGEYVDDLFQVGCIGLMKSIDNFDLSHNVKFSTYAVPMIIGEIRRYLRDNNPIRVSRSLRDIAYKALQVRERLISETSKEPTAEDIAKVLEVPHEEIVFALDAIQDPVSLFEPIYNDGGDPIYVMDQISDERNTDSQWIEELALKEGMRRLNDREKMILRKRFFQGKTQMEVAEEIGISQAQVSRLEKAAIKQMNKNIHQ

[3] = biological target: GST-σ^GN45E (Bacillus subtilis) (UniProt P19940); experiment: pull-down; GST or GST-σ^G fusions on glutathione Sepharose beads; soluble extract of B. subtilis AH6608 (CsfB-GFP) 2 h after the onset of sporulation; 30 min at room temperature; washed three times in 200 mM NaCl, 10 mM Tris-HCl pH 8.0, 10% glycerol; immunoblot with anti-GFP and anti-SpoIIAB; densitometry, average of three experiments
GST-σ^GN45A [4] = biological target: T1, GST-σ^GN45A; experiment: as above; conditions: one partner purified

Binder	efficiency of the pull-down relative to the wild type (× of the wild type) [1]	efficiency of the pull-down relative to the wild type (GST-σ^GN45A [2])	binding result (GST-σ^G)	efficiency of the pull-down relative to the wild type (× of the wild type) [3]	efficiency of the pull-down relative to the wild type (GST-σ^GN45A [4])
CsfB-Strep II tag (natural protein, Bacillus subtilis, UniProt P37534 1-64, looked up, anti-sigma-G factor CsfB (Gin) of Bacillus subtilis; coding region of csfB amplified with primers csfB191D and csfBstrepR (which carries the Strep II tag) and cloned between NcoI and BamHI of pET16b; also called CsfB-Strep II-tagged protein; purified CsfB; source: E. coli BL21(DE3) grown in LB, purified (Strep-Tactin Sepharose); not shown: Strep II tag, C-terminal, kept) MDETVKLNHTCVICDQEKNRGIHLYTKFICLDCERKVISTSTSDPDYAFYVKKLKSIHTPPLYS	0.2	~0.6 × the efficiency of the wild type	binds	–	–
CsfB-GFP fusion (natural protein, Bacillus subtilis, UniProt P37534 1-64, looked up, anti-sigma-G factor CsfB (Gin) of Bacillus subtilis, functional fusion to GFP; The construction of the csfB-gfp fusion stands in Text S1; source: B. subtilis AH6608 (csfB::km ΔsigG ΔamyE::csfB-gfp), soluble extract 2 h after the onset of sporulation in DSM) MDETVKLNHTCVICDQEKNRGIHLYTKFICLDCERKVISTSTSDPDYAFYVKKLKSIHTPPLYS	–	–	–	0.4	0.7 × of the wild type
